From FireProtDB (doi:10.1016/s0014-5793(99)01395-2)

B1: Endolysin, P03706 (parent)
chain: MVEINNQRKAFLDMLAWSEGTDNGRQKTRNHGYDVIVGGELFTDYSDHPRKLVTLNPKLKSTGAGRYQLLSRWWDAYRKQLGLKDFSPKSQDAVALQQIKERGALPMIDRGDIRQAIDRCSNIWASLPGAGYGQFEHKADSLIAKFKEAGGTVREIDV

Variants of: B1
Settings: Escherichia phage lambda, pH 7, Thermal, Fluorescence, phosphate buffer 100 mM, reversible: yes, structure 1AM7, whole UniProt chain shown; for ddG of mutation (higher = less stable) / unfolding free energy: 25 °C

| Variant | ddG of mutation (higher = less stable) [kcal/mol] | unfolding free energy [kcal/mol] | Tm [°C] | change of melting temperature, mutant - wild type (higher = more stable) [°C] | unfolding enthalpy (van 't Hoff) [kcal/mol] |
| --- | --- | --- | --- | --- | --- |
| H48N | 5 | 2.1 | 30.1 | -22.2 | 60.8 |
| H31D | 1.6 | 5.5 | 46.1 | -6.2 | 99.8 |
| H31N H137N | -1.8 | 8.9 |  |  |  |
